These results are taken from patent publication US20210253718A1, “FRIZZLED5 PROTEIN-BINDING AGENTS” (Modmab Therapeutics Corporation, priority 2016, published 2021).

To fix the notation:
T1: FZD8 CRD (Homo sapiens, UniProt Q9H461)
T1 construct: K31-D155; GPI anchor signal (C); expressed in transfected cells; host or cells: CHO cells, lentiviral pLenti-puro
T1 sequence (Q9H461 31-155): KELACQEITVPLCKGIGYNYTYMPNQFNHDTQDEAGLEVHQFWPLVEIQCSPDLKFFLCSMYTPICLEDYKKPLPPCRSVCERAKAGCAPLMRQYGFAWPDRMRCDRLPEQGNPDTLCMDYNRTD

T2: FZD4 CRD (Homo sapiens, UniProt Q9ULV1)
T2 construct: E42-V167; GPI anchor signal (C); expressed in transfected cells; host or cells: CHO cells, lentiviral pLenti-puro
T2 sequence (Q9ULV1 42-167): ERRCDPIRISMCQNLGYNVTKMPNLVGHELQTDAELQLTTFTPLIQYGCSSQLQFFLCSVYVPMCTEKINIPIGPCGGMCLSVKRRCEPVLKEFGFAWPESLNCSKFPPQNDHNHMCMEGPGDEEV

B1: Fab-2900: anti-FZD5 Fab with antibody variable region Fv-2900; CDR SEQ ID NOs: 35, 36, 39, 78, 115, 153 (antibody, V domains shown)
VH: EVQLVESGGGLVQPGGSLRLSCAASGFNLSSYYIHWVRQAPGKGLEWVASISSSSSSTSYADSVKGRFTISADTSKNTAYLQMNSLRAEDTAVYYCARGALDYWGQGTLVTVSS
VL: DIQMTQSPSSLSASVGDRVTITCRASQSVSSAVAWYQQKPGKAPKLLIYSASSLYSGVPSRFSGSRSGTDFTLTISSLQPEDFATYYCQQWYSGSSLFTFGQGTKVEIK
B2: Fab-2925: anti-FZD5 Fab with antibody variable region Fv-2925; CDR SEQ ID NOs: 35, 36, 64, 102, 140, 172 (antibody, V domains shown)
VH: EVQLVESGGGLVQPGGSLRLSCAASGFNLSYSSMHWVRQAPGKGLEWVASIYPSYGSTYYADSVKGRFTISADTSKNTAYLQMNSLRAEDTAVYYCARYGYFGLDYWGQGTLVTVSS
VL: DIQMTQSPSSLSASVGDRVTITCRASQSVSSAVAWYQQKPGKAPKLLIYSASSLYSGVPSRFSGSRSGTDFTLTISSLQPEDFATYYCQQAWVYASLFTFGQGTKVEIK
B3: Fab-2905: anti-FZD5 Fab with antibody variable region Fv-2905; CDR SEQ ID NOs: 35, 36, 44, 83, 120, 157 (antibody, V domains shown)
VH: EVQLVESGGGLVQPGGSLRLSCAASGFNLSYYYMHWVRQAPGKGLEWVASIYSSYSYTSYADSVKGRFTISADTSKNTAYLQMNSLRAEDTAVYYCARSGYALDYWGQGTLVTVSS
VL: DIQMTQSPSSLSASVGDRVTITCRASQSVSSAVAWYQQKPGKAPKLLIYSASSLYSGVPSRFSGSRSGTDFTLTISSLQPEDFATYYCQQSSWYYGYPFTFGQGTKVEIK
B4: Fab-2928: anti-FZD5 Fab with antibody variable region Fv-2928; CDR SEQ ID NOs: 35, 36, 67, 105, 143, 175 (antibody, V domains shown)
VH: EVQLVESGGGLVQPGGSLRLSCAASGFNISYSSIHWVRQAPGKGLEWVASIYPSYSSTYYADSVKGRFTISADTSKNTAYLQMNSLRAEDTAVYYCARYYAMDYWGQGTLVTVSS
VL: DIQMTQSPSSLSASVGDRVTITCRASQSVSSAVAWYQQKPGKAPKLLIYSASSLYSGVPSRFSGSRSGTDFTLTISSLQPEDFATYYCQQAFYYPITFGQGTKVEIK
B5: Fab-2913: anti-FZD5 Fab with antibody variable region Fv-2913; CDR SEQ ID NOs: 35, 36, 52, 91, 128, 165 (antibody, V domains shown)
VH: EVQLVESGGGLVQPGGSLRLSCAASGFNISYSSIHWVRQAPGKGLEWVASIYPYSSSTSYADSVKGRFTISADTSKNTAYLQMNSLRAEDTAVYYCARYGYYGLDYWGQGTLVTVSS
VL: DIQMTQSPSSLSASVGDRVTITCRASQSVSSAVAWYQQKPGKAPKLLIYSASSLYSGVPSRFSGSRSGTDFTLTISSLQPEDFATYYCQQWGVSHYLFTFGQGTKVEIK
B6: Fab-2909: anti-FZD5 Fab with antibody variable region Fv-2909; CDR SEQ ID NOs: 35, 36, 48, 87, 124, 161 (antibody, V domains shown)
VH: EVQLVESGGGLVQPGGSLRLSCAASGFNISSSYMHWVRQAPGKGLEWVASISSSSGYTSYADSVKGRFTISADTSKNTAYLQMNSLRAEDTAVYYCARTVRGSKKPYFSGWAMDYWGQGTLVTVSS
VL: DIQMTQSPSSLSASVGDRVTITCRASQSVSSAVAWYQQKPGKAPKLLIYSASSLYSGVPSRFSGSRSGTDFTLTISSLQPEDFATYYCQQSWSYHYLITFGQGTKVEIK
B7: Fab-2899: anti-FZD5 Fab with antibody variable region Fv-2899; CDR SEQ ID NOs: 35, 36, 38, 77, 114, 153 (antibody, V domains shown)
VH: EVQLVESGGGLVQPGGSLRLSCAASGFNLYYYYMHWVRQAPGKGLEWVASIYPSSGSTSYADSVKGRFTISADTSKNTAYLQMNSLRAEDTAVYYCARGALDYWGQGTLVTVSS
VL: DIQMTQSPSSLSASVGDRVTITCRASQSVSSAVAWYQQKPGKAPKLLIYSASSLYSGVPSRFSGSRSGTDFTLTISSLQPEDFATYYCQQWYSSYGLITFGQGTKVEIK
B8: Fab-2923: anti-FZD5 Fab with antibody variable region Fv-2923; CDR SEQ ID NOs: 35, 36, 62, 100, 138, 162 (antibody, V domains shown)
VH: EVQLVESGGGLVQPGGSLRLSCAASGFNLYYYYMHWVRQAPGKGLEWVASIYSSSGSTSYADSVKGRFTISADTSKNTAYLQMNSLRAEDTAVYYCARGAMDYWGQGTLVTVSS
VL: DIQMTQSPSSLSASVGDRVTITCRASQSVSSAVAWYQQKPGKAPKLLIYSASSLYSGVPSRFSGSRSGTDFTLTISSLQPEDFATYYCQQWYGYSALITFGQGTKVEIK
B9: Fab-2902: anti-FZD5 Fab with antibody variable region Fv-2902; CDR SEQ ID NOs: 35, 36, 41, 80, 117, 153 (antibody, V domains shown)
VH: EVQLVESGGGLVQPGGSLRLSCAASGFNISYYYIHWVRQAPGKGLEWVASISSSSSSTSYADSVKGRFTISADTSKNTAYLQMNSLRAEDTAVYYCARGALDYWGQGTLVTVSS
VL: DIQMTQSPSSLSASVGDRVTITCRASQSVSSAVAWYQQKPGKAPKLLIYSASSLYSGVPSRFSGSRSGTDFTLTISSLQPEDFATYYCQQWYAFGALITFGQGTKVEIK
B10: Fab-2930: anti-FZD5 Fab with antibody variable region Fv-2930; CDR SEQ ID NOs: 35, 36, 69, 107, 145, 153 (antibody, V domains shown)
VH: EVQLVESGGGLVQPGGSLRLSCAASGFNLSYYYIHWVRQAPGKGLEWVASIYPYSGSTSYADSVKGRFTISADTSKNTAYLQMNSLRAEDTAVYYCARGALDYWGQGTLVTVSS
VL: DIQMTQSPSSLSASVGDRVTITCRASQSVSSAVAWYQQKPGKAPKLLIYSASSLYSGVPSRFSGSRSGTDFTLTISSLQPEDFATYYCQQWYGPYLITFGQGTKVEIK
B11: Fab-2935: anti-FZD5 Fab with antibody variable region Fv-2935; CDR SEQ ID NOs: 35, 36, 74, 111, 150, 178 (antibody, V domains shown)
VH: EVQLVESGGGLVQPGGSLRLSCAASGFNIYYYYIHWVRQAPGKGLEWVASIYPSSGSTSYADSVKGRFTISADTSKNTAYLQMNSLRAEDTAVYYCARAAFDYWGQGTLVTVSS
VL: DIQMTQSPSSLSASVGDRVTITCRASQSVSSAVAWYQQKPGKAPKLLIYSASSLYSGVPSRFSGSRSGTDFTLTISSLQPEDFATYYCQQWYGGYALITFGQGTKVEIK
B12: Fab-2922: anti-FZD5 Fab with antibody variable region Fv-2922; CDR SEQ ID NOs: 35, 36, 61, 99, 137, 171 (antibody, V domains shown)
VH: EVQLVESGGGLVQPGGSLRLSCAASGFNIYSSYMHWVRQAPGKGLEWVASISPYSGYTSYADSVKGRFTISADTSKNTAYLQMNSLRAEDTAVYYCARTVRGSKKPYFSGWAMDYWGQGTLVTVSS
VL: DIQMTQSPSSLSASVGDRVTITCRASQSVSSAVAWYQQKPGKAPKLLIYSASSLYSGVPSRFSGSRSGTDFTLTISSLQPEDFATYYCQQSFVYPYLITFGQGTKVEIK
B13: Fab-2906: anti-FZD5 Fab with antibody variable region Fv-2906; CDR SEQ ID NOs: 35, 36, 45, 84, 121, 158 (antibody, V domains shown)
VH: EVQLVESGGGLVQPGGSLRLSCAASGFNFSSSSIHWVRQAPGKGLEWVAYISSSYGYTYYADSVKGRFTISADTSKNTAYLQMNSLRAEDTAVYYCARTVRGSKKPYFSGWAMDYWGQGTLVTVSS
VL: DIQMTQSPSSLSASVGDRVTITCRASQSVSSAVAWYQQKPGKAPKLLIYSASSLYSGVPSRFSGSRSGTDFTLTISSLQPEDFATYYCQQWSWGFLITFGQGTKVEIK

The target of one experiment is T3, FZD7 CRD (Homo sapiens, UniProt O75084).
T3 construct: D45-S169; GPI anchor signal (C); expressed in transfected cells; host or cells: CHO cells, lentiviral pLenti-puro
Nature of the experiment: Flow cytometry of anti-FZD5 Fab binding to CHO cells overexpressing Frizzled CRD. In a few lines: (§1)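 CHO lines each expressing a different human Frizzled CRD, myc-tagged and GPI-anchored at the surface, stained with 200 nM Fab, then Alexa Fluor 488 F(ab′)2 secondary. Dead cells excluded by viability dye; anti-c-Myc staining served as expression control. Binding read by flow cytometry.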
Background: A flow cytometer gives signals particle by particle.
For the molecule B1, the “Median fluorescence, Frizzled CRD overexpressed on CHO cells: FZD7” value (from here on “Median fluorescence … FZD7”) is listed as 8.98.

Consider B2, for which the “Median fluorescence … FZD7” value came out at 24.14.

B3: the “Median fluorescence … FZD7” value was 3.43.

The target of the next experiment is T1, FZD8 CRD. The experiment is described as above. Summed up: as §1
As for B4, the “Median fluorescence, Frizzled CRD overexpressed on CHO cells: FZD8” value (shortened to “Median fluorescence … FZD8”) is given as 7.57.

In the case of B5, the “Median fluorescence … FZD8” value was 8.98.

For the molecule B6, the “Median fluorescence … FZD8” value amounted to 7.43.

In the case of B2, the “Median fluorescence … FZD8” value stood at 7.70.

Consider B3, for which the “Median fluorescence … FZD8” value is 8.17.

The target in the next experiment is T2, FZD4 CRD. The experiment is described as above. Summed up:
as §1
Consider B7, for which the “Median fluorescence, Frizzled CRD overexpressed on CHO cells: FZD4” value (from here on “Median fluorescence … FZD4”) amounted to 11.86.

As to B8, the “Median fluorescence … FZD4” value came out at 10.55.

As for B9, the “Median fluorescence … FZD4” value is given as 10.27.

Take B10: the “Median fluorescence … FZD4” value turned out to be 9.31.

Turning to B11, the “Median fluorescence … FZD4” value is 7.3.

In the case of B12, the “Median fluorescence … FZD4” value is 12.75.

On to B13, for which the “Median fluorescence … FZD4” value was 12.3.
